Data from US20020110800A1, “Use of SHP-1 and SHP-2 to detect compounds involved in neuronal survival” (McGill University, priority 1997, published 2002).

Columns and labels:
Test in all cases: cell-based or functional assay
TrkA Y490/785F = TrkA Y490/785F (UniProt P04629)
[1] = target: wild-type TrkA, baculovirus-expressed, activated (autophosphorylated) (UniProt P04629)
TrkA Y490F = TrkA Y490F (UniProt P04629)
TrkA Y785F = TrkA Y785F (UniProt P04629)

- Trk tyrosine dephosphorylation on co-expression in insect cells (anti-pTyr blot) (TrkA Y490/785F): 2 fold
- Trk tyrosine dephosphorylation on co-expression in insect cells (anti-pTyr blot) [1]: 2 fold
- dephosphorylation of Trk at Y674/Y675 (phospho-specific anti-Trk antibodies, co-expression in insect cells) [1]: 2 fold
- Trk tyrosine dephosphorylation on co-expression in insect cells (anti-pTyr blot) (TrkA Y490F): 2 fold
- Trk tyrosine dephosphorylation on co-expression in insect cells (anti-pTyr blot) (TrkA Y785F): 2 fold
B1: SHP-2 (enzyme, UniProt Q06124 2-593, looked up, species assumed)
Tyrosine-protein phosphatase non-receptor type 11: TSRRWFHPNITGVEAENLLLTRGVDGSFLARPSKSNPGDFTLSVRRNGAVTHIKIQNTGDYYDLYGGEKFATLAELVQYYMEHHGQLKEKNGDVIELKYPLNCADPTSERWFHGHLSGKEAEKLLTEKGKHGSFLVRESQSHPGDFVLSVRTGDDKGESNDGKSKVTHVMIRCQELKYDVGGGERFDSLTDLVEHYKKNPMVETLGTVLQLKQPLNTTRINAAEIESRVRELSKLAETTDKVKQGFWEEFETLQQQECKLLYSRKEGQRQENKNKNRYKNILPFDHTRVVLHDGDPNEPVSDYINANIIMPEFETKCNNSKPKKSYIATQGCLQNTVNDFWRMVFQENSRVIVMTTKEVERGKSKCVKYWPDEYALKEYGVMRVRNVKESAAHDYTLRELKLSKVGQGNTERTVWQYHFRTWPDHGVPSDPGGVLDFLEEVHHKQESIMDAGPVVVHCSAGIGRTGTFIVIDILIDIIREKGVDCDIDVPKTIQMVRSQRSGMVQTEAQYRFIYMAVQHYIETLQRRIEEEQKSKRKGHEYTNIKYSLADQTSGDQSPLPPCTPTPPCAEMREDSARVYENVGLMQQQKSFR
